# In patent publication US20040043420A1, “Method of identifying conformation-sensitive binding peptides and uses thereof” (priority 2003, published 2004):
# What was measured:
# [1] = molecular target: T1, glucocorticoid receptor (GR) (Homo sapiens, UniProt P04150); experiment: Yeast-based two-hybrid test of peptide interaction with full-length glucocorticoid receptor; type: cell-based
# T1 construct: in the yeast based system using full-length receptor; expressed in transfected cells; host or cells: yeast
# T1 sequence (P04150 1-777): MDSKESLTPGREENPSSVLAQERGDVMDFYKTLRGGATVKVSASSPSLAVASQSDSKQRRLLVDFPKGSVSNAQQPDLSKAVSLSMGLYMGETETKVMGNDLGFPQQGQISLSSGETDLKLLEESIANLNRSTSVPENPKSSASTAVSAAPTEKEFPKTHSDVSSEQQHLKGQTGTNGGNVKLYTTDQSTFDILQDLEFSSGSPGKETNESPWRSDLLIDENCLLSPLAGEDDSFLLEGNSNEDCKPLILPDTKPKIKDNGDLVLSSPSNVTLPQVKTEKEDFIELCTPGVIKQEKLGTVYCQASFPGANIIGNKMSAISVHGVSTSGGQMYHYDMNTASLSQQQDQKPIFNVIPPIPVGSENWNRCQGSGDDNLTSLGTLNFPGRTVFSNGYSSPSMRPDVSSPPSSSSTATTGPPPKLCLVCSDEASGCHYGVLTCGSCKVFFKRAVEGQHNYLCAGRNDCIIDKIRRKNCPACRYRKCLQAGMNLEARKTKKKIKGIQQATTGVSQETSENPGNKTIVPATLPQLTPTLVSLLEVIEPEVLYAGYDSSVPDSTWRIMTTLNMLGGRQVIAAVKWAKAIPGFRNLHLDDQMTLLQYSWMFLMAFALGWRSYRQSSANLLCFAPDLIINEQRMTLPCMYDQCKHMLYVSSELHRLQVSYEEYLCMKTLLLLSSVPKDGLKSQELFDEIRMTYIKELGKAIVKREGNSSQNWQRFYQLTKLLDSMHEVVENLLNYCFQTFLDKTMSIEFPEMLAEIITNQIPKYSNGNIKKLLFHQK
# From the text: (§1) We have performed a limited amount of in vivo screenings for peptides to GR in the yeast based system using full-length receptor and either dexamethasone or medroxyprogesterone acetate as ligands. We have a single peptide sequence that we have followed up on based on its specificity profile in yeast. This peptide was isolated on MPA liganded GR, and is termed GRMPA. Its sequence is as follows: […] (SEQ ID NO:268).
# [2] = molecular target: T1, glucocorticoid receptor (GR); experiment: Mammalian cell (Huh-7) based peptide/glucocorticoid receptor interaction assay, luciferase; conditions: all ligands (agonists, partial agonists, and antagonists)
# From the text: as §1
# We have isolated numerous peptides using phage display to the GR ligand binding domain and have formatted cell based assays in mammalian cells for screening large compound sets. We have formatted the assay as stated above for 96-well plates and for 384-well plates. To format the assay to 384-well plates the number of cells per well were scaled down to 5,000 Huh-7 cells per well. Similar ratios of DNA constructs and lipection reagents were used in both assays for transfections prior to seeding the cells into the assay plates. We have also carried out a screen of a 60,000 compound set with one of the phage display isolated peptides in this mammalian cell based format. This peptide interacts with the glucocorticoid receptor in the presence of both agonists (e.g. fluticasone propionate and dexamethasone) and antagonists (RU486). For the compound screen cells were transfected in suspension with DNA constructs as described above prior to seeding 5,000 cells per well. […]
sequence,measurement,setting,value
EFVARYGQLLGWRHPCS [GRMPA],Interaction with GR in yeast in the presence of full agonists,[1]; fluticasone propionate and dexamethasone,not full agonists
same,Interaction with GR in yeast in the presence of partial agonists and antagonists,"[1]; partial agonists MPA, cortivazol, deoxycorticosterone, antagonist RU486",interacted
same,Interaction with GR in mammalian cells in the presence of ligands,[2],interacted in the presence of all ligands
